Reference: the supplement of paper PMC10567573

B1: ZNF193 (parent)
chain: QCIECGKSFNRHCNLIRHQKIHTV
B2: LCOR (parent)
chain: PCAGSTSLSHSPGCSSTQGNGRPG

Variants of: B1
Assay: protein stability index of a GFP-peptide fusion (GPS, HEK-293T) (PSI 1-6); higher = more stable
Conditions: c terminus: a fixed tail appended
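Also: lentivirally expressed fusions sorted by FACS into six bins by GFP to DsRed ratio, PSI derived from sequencing read proportions per bin multiplied by bin number.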

Protein stability index: each site, then its substitutions
L15: P 2.39 | D 3.18 | A 2.82 | H 4.19 | Q 2.9 | W 4.43 | S 2.62 | E 3.06 | C 3.6 | G 3.04 | M 3.35 | K 2.94 | Y 3.35 | N 3.29 | F 3.32 | T 2.29 | R 3.01 | I 2.24 | V 2.34
S8: T 3.96 | P 3.13 | A 2.84 | I 4.05 | L 4.35 | D 3.4 | N 3.47 | V 4.35 | C 3.85 | H 3.29 | G 2.49 | R 3.77 | K 3.64 | Q 3.02 | E 3.52 | Y 3.43 | M 3.48 | F 4.03 | W 3.17
N10: K 4.64 | E 3.92 | G 3.29 | T 4.08 | H 3.91 | Y 2.98 | S 3.48 | M 3.14 | W 3.51 | D 3.88 | I 3.28 | F 3.02 | P 2.8 | Q 3.73 | L 2.48 | R 3.97 | C 3 | A 3.54 | V 3.75
I3: N 3.65 | Y 3.38 | A 4.7 | D 3.4 | R 3.59 | L 3.87 | M 3.69 | G 3.72 | C 3.63 | T 4.2 | P 4.11 | V 3.73 | F 3.32 | E 4.31 | H 4.06 | Q 4.09 | W 3.18 | S 4.17 | K 3.87
C2: E 2.77 | R 1.72 | Y 2.03 | W 2.04 | L 1.63 | A 1.66 | H 1.6 | Q 2.14 | T 1.74 | N 2.45 | M 1.71 | K 1.95 | I 2.06 | P 1.34 | F 1.07 | V 2.73 | S 1.81 | D 2.41 | G 2.13
C5: S 2.56 | L 1.54 | D 2.52 | K 2.09 | N 1.79 | P 2.49 | G 2.01 | A 2.36 | H 1.98 | M 1.94 | W 2.07 | Q 2.6 | F 1.44 | V 2.13 | Y 2.26 | R 2.22 | E 2.71 | T 1.95 | I 1.53
E4: Y 3.06 | D 2.78 | S 2.75 | W 3.85 | M 3.1 | T 3.42 | L 2.66 | Q 3.43 | N 2.76 | H 4.27 | K 3.1 | P 1.39 | F 3.94 | V 3.48 | A 3.12 | C 2.54 | I 3.54 | G 2.04 | R 3.71
R11: I 2.89 | Y 3.04 | T 4.4 | W 2.62 | G 3.25 | F 3.07 | Q 2.96 | V 3.21 | M 2.86 | C 3.55 | H 3.5 | D 4.37 | A 3.38 | N 4.26 | P 3.21 | K 3.7 | S 4.1 | L 3.5 | E 3.76
G6: Q 2.44 | V 1.92 | H 2.15 | P 2.18 | E 2.84 | F 1.59 | D 2.62 | Y 2.17 | C 1.99 | T 2.23 | N 2.38 | R 2.5 | K 3.54 | I 1.42 | L 1.97 | M 2.11 | S 2.54 | W 1.5 | A 2.38
H12: I 3.43 | T 3.71 | P 3.74 | G 3.02 | K 3.98 | W 3.19 | D 3.36 | E 3.81 | M 3.65 | Q 4 | N 3.52 | A 3.48 | F 3.06 | V 3.76 | S 3.22 | C 2.92 | Y 3.27 | R 3.22 | L 4.23
Q1: E 2.8 | K 3.6 | I 3.28 | F 2.83 | Y 2.99 | C 3.26 | V 3.21 | M 3.54 | H 3.36 | P 2.62 | T 4.04 | G 2.45 | W 2.3 | L 3.14 | S 3.44 | N 2.56 | A 3.14 | R 4.1 | D 3.5
N14: L 3.11 | H 3.44 | K 3.38 | P 2.25 | I 2.6 | T 3.44 | V 2.83 | D 5.09 | C 3.43 | S 3.71 | W 2.29 | M 3.5 | E 3.94 | R 3.12 | A 3.9 | G 2.72 | F 2.32 | Y 2.33 | Q 4.31
C13: F 2.62 | Q 3.32 | K 3.74 | Y 3.29 | L 2.73 | T 3.29 | E 4.55 | I 3.04 | D 4.1 | S 3.95 | P 2.99 | V 3.88 | M 2.91 | N 3.2 | W 3.04 | A 4.31 | G 3.75 | H 3.56 | R 3.91
R17: H 3.13 | Q 3.91 | L 2.9 | K 3.74 | F 2.22 | S 3.4 | I 2.31 | E 4.18 | A 3.31 | V 2.99 | N 3.24 | M 2.95 | G 3.07 | D 3.78 | T 3.75 | W 2.66 | P 2.15 | C 3.57
I16: G 3.02 | S 3.41 | E 3.44 | A 2.74 | D 2.96 | V 3.69 | K 4 | C 3.9 | Q 3.64 | Y 2.94 | P 2.56 | W 2.46 | L 3.29 | H 3.18 | N 2.89 | M 3.1 | F 2.43 | T 3.3 | R 3.51
F9: L 1.9 | V 1.92 | N 2.56 | K 3.06 | D 3.09 | G 2.86 | R 2.77 | E 2.93 | S 2.83 | M 2.51 | A 2.24 | H 2.55 | I 2.13 | C 3.47 | Y 3.01 | T 2.59 | Q 2.88 | W 2.77 | P 3.25
K7: E 3.86 | W 2.18 | R 3.05 | L 2.86 | Q 3.45 | H 2.35 | I 3.08 | D 2.57 | N 2.34 | T 2.93 | V 2.44 | C 2.51 | Y 2.29 | F 2.37 | M 3.34 | P 2.59 | G 2.13 | A 3.74 | S 2.82

Variants of: B2
Assay: as above
Conditions: c terminus: a fixed tail appended

Protein stability index, by site and new letter:
G24: Y 2.61 | M 2.82 | W 2.47 | P 3.42 | S 3.22 | N 3.87 | K 3.77 | Q 3.37 | L 2.94 | T 3.51 | R 3.07 | V 2.68
